{
  "source": "patent EP4261227A1",
  "binders": {"B1": {"name": "anti-OXA-48-like carbapenemase mouse mAb IB5 (antibody, V domains shown)", "VH": "EVMLVESGGGLVKPGGSLKLSCAASGFTFSTYAMSWVRLTPEKRLEWVATISSGGSYTSYPDSVKGRFTISRDNAKNTLYLQMSSLRSEDTAMYYCARRPEYAMDYWGQGTSVTVSS", "VL": "LVQHQPVSSYLAASPGETVTINCRASKSISKYLAWYQEKPGKTNKLLIYSGSTFQSGFPSGFSGSGSGTDFTLTVSSLEPEDFAIYYCQQHNEYPYVTFGGGTKLEIKR"}},
  "biological_target": "OXA-48-like carbapenemase (Klebsiella pneumoniae) (UniProt Q6XEC0)",
  "sequence (Q6XEC0 23-265 limits assumed)": "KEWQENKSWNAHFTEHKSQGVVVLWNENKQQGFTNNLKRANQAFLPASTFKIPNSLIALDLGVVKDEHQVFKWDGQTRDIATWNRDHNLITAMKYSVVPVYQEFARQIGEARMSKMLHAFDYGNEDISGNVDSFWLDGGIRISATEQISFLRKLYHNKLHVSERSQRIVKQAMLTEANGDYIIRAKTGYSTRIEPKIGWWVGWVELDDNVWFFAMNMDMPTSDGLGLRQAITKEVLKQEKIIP",
  "experiment": "indirect ELISA, plate coated with 0.2 ug/mL OXA-48-like carbapenemase, purified antibody in doubling dilutions from 1:1000",
  "data": [
    {"binder": "B1", "values": [
      {"measurement": "titer (dilution factor (1:x) from 1 mg/mL)", "result": "1.28e+06"}
    ]}
  ]
}
